Assay [1] deals with T1, beta-catenin in DLD1 TCF/LEF luciferase reporter cells (UniProt P35222 1-781).
T1 sequence (looked up): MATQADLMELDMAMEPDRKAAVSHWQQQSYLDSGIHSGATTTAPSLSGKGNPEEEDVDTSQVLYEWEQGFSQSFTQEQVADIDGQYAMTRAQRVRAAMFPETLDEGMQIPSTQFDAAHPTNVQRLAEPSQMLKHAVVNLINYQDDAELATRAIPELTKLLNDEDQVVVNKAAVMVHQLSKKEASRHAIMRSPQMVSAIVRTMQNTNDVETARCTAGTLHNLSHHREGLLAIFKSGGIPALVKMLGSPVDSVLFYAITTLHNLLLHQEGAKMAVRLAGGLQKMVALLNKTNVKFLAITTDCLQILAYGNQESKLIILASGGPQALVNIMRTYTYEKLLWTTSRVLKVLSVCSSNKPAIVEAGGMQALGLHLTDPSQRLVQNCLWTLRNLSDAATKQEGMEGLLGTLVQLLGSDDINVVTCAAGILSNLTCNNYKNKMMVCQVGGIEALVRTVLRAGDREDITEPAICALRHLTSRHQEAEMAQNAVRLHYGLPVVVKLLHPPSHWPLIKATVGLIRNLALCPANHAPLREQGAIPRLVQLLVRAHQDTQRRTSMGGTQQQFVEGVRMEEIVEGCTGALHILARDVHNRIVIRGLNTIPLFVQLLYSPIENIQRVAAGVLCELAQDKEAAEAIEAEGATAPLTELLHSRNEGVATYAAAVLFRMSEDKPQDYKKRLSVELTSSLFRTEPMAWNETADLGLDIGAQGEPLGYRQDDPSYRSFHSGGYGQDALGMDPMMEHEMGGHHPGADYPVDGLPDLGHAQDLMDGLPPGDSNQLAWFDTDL
As to the kind of experiment: cell-based or functional assay.

The target in assay [2] is T2, B-cat-Halo (UniProt P35222 1-781).
T2 sequence (looked up): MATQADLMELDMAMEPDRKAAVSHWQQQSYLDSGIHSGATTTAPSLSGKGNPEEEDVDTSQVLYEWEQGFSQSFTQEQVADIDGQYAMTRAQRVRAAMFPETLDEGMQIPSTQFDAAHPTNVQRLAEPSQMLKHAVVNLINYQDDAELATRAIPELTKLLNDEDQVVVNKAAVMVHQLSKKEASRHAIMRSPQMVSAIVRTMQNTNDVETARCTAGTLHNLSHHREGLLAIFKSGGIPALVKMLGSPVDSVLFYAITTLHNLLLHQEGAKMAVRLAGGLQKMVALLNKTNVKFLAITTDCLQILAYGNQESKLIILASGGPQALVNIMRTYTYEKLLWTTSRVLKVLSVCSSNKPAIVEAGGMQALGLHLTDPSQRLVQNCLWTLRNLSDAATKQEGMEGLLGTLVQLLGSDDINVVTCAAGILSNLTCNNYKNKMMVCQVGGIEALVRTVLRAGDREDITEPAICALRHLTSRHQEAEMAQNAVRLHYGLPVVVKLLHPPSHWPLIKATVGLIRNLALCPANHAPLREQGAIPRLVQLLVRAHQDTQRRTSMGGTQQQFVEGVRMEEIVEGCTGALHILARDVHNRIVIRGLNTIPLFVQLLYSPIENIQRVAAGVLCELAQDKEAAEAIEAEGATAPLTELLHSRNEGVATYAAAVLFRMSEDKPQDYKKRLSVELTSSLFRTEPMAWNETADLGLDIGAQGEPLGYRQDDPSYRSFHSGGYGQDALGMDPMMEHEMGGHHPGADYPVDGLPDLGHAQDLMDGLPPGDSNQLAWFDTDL
As to the kind of experiment: cell-based or functional assay.

In assay [3] the target is T3, full-length beta-Catenin (Uniprot ID P35222) (Homo sapiens (Human), UniProt P35222 1-781).
T3 construct: also called bCat; B-Catenin
T3 sequence: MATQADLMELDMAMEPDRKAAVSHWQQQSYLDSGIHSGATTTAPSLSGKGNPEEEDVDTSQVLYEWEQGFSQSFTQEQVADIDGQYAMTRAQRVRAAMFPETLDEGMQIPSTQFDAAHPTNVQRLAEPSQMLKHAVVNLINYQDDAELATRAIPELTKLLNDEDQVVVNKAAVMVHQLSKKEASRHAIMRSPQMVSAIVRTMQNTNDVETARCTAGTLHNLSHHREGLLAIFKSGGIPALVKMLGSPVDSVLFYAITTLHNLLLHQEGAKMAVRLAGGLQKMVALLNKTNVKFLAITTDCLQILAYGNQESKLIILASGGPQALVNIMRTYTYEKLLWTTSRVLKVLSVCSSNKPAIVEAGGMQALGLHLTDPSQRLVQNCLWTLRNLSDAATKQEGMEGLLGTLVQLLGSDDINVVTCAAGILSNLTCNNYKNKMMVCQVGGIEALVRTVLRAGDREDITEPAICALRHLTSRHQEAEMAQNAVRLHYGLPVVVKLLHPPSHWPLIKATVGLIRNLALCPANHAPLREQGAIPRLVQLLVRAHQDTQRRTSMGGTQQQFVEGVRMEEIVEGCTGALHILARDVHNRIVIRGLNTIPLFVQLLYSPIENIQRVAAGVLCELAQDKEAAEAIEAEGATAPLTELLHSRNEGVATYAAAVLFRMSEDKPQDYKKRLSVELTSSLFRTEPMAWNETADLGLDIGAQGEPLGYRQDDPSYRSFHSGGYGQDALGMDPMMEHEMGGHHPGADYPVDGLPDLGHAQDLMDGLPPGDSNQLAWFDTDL
Kind of assay: fluorescence polarization competition; full-length beta-catenin + 5FAM-TCF4(10-53) probe. How it is done: The plate was incubated protected from light for 60 minutes at 20° C. prior to read. Reads were performed on a CLARIOstar plate reader (BMG Labtech) in duplicate, and data were fitted to a 1:1 binding model with hill slope using an in-house script. All provided concentrations are final concentrations.
(In general: Fluorescence polarisation rises when a labelled molecule tumbles more slowly, as on binding a larger partner.)

Assay [4] has as its target T4, full-length beta-Catenin (Uniprot ID P35222) (Homo sapiens (Human), UniProt P35222 1-781).
T4 construct: also called bCat; B-Catenin
T4 sequence: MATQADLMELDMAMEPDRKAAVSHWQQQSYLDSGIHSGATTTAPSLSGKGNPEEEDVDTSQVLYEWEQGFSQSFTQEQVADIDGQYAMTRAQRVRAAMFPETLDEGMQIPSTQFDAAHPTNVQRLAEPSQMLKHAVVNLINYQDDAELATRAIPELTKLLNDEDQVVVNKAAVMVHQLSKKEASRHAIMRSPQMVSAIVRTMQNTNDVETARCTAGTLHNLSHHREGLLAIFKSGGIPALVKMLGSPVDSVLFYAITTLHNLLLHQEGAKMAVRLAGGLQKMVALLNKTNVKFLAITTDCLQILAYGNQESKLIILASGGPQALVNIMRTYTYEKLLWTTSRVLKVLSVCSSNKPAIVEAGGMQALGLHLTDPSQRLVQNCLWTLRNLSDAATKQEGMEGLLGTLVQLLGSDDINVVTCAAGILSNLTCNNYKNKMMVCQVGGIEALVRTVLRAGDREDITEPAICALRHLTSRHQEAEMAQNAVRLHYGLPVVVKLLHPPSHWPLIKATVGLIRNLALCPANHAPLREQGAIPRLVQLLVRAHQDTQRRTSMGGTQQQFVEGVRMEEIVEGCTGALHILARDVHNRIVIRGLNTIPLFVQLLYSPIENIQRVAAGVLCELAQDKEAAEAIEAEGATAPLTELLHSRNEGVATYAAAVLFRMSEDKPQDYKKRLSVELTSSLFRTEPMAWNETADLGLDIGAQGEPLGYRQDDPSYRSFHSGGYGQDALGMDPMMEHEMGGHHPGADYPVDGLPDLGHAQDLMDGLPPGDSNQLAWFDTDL
As to the kind of experiment: fluorescence polarization competition; full-length beta-catenin, competitor 5FAM-TCF4(10-53) probe. An outline of the steps: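 Incubate 60 minutes at 20° C. away from light, then read polarization in duplicate. Fit to 1:1 binding with hill slope.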

In assay [5] the target is T5, B-cat-Halo (UniProt P35222 1-781, HaloTag NanoBRET 618 Ligand bound in the assay).
T5 construct: Transfected into HEK293 cells for the NanoBRET assay; also called beta-catenin HaloTag NanoBRET construct; not shown: HaloTag
T5 sequence (looked up): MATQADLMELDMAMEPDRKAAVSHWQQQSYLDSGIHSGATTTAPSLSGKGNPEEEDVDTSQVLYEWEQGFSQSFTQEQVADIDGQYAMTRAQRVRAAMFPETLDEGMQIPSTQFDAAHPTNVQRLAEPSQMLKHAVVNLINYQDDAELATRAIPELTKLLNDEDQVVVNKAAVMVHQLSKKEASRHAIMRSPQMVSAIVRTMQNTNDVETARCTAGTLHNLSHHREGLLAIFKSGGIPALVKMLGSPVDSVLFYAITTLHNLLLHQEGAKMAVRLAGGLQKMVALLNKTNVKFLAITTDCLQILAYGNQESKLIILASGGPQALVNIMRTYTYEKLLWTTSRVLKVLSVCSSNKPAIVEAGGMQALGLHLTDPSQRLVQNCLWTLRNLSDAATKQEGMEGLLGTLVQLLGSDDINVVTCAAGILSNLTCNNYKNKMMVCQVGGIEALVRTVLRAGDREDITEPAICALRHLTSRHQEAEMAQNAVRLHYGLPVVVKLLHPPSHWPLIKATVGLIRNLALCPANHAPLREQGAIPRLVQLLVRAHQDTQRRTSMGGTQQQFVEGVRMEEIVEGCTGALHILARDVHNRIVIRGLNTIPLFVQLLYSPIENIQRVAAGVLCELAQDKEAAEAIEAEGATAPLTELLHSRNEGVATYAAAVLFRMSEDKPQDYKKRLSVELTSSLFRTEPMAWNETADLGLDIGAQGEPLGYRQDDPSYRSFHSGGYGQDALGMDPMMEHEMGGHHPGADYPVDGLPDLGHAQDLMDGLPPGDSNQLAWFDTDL
As to the kind of experiment: NanoBRET Abs IC50 in HEK293 cells; B-cat-Halo, competitor TCF4-Luc.

Starred links: 1 amine or outer side, 2 acyl side, 3 side chain; linkers in the order of their positions; H or OH if unused. Positions of bridges follow the written chain, without caps; N, C: chain ends. Non-standard residues stand in square brackets, D forms with d. Primed or numbered codes have the meaning given here. B5(10) = 2-amino-2-(pent-4-en-1-yl)hept-6-enoic acid, bis(4-pentenyl)glycine, stitching residue bearing both staples, C=CCCCC(CCCC=C)(N[*:1])C(=O)[*:2]; PyrS2″ = (S)-3-amino-1-((pent-4-en-1-yloxy)carbonyl)pyrrolidine-3-carboxylic acid (stapling residue), C=CCCCOC(=O)N1CC[C@@](N[*:1])(C(=O)[*:2])C1; B5(18) = 2,2-bis(4-pentenyl)glycine (2-amino-2-(pent-4-en-1-yl)hept-6-enoic acid), stitching residue, C=CCCCC(CCCC=C)(N[*:1])C(=O)[*:2]; TfeGA = (S)-2-amino-3-((carboxymethyl)(2,2,2-trifluoroethyl)amino)propanoic acid, O=C([C@H](CN(CC(=O)[*:3])CC(F)(F)F)N[*:1])[*:2]; PyrS2 = (S)-3-amino-1-((pent-4-en-1-yloxy)carbonyl)pyrrolidine-3-carboxylic acid, C=CCCCOC(=O)N1CC[C@@](N[*:1])(C(=O)[*:2])C1; Phe(2-Cl) = N[C@@H](Cc1ccccc1Cl)C(=O)O; Bta = N[C@@H](Cc1csc2ccccc12)C(=O)O; αAllylPro = C=CC[C@@]1(C(=O)O)CCCN1; tBuAla = CC(C)(C)C[C@H](N)C(=O)O

On to Ac-[αAllylPro]D[tBuAla][B5(18)]D[TfeGA]FAFN[PyrS2″][Phe(2-Cl)][Bta]Q-NH2 (staple 1-4, 4-11) [I-1008], for which the “DLD1 4% Abs IC50” value in assay [1] was determined as 4.7 µM. The “NanoBRET Abs IC50” value in assay [2] amounted to 14 µM.

B1: I-1287 (peptide)
peptide: Ac-[αAllylPro]NA[B5(10)]DTAAFL[PyrS2]F[Bta]Q-NH2
modifications: staple 1-4, 4-11; not fully specified; printed as Ac-PL3-Asn-Ala-B5-Asp-Thr-Ala-Ala-Phe-Leu-PyrS2-Phe-BztA-Gln-NH2
Turning to B1, in assay [3], the concentration giving a half-maximal response (EC50) came out at 10 µM.

B2: I-730 (peptide)
peptide: XDLXDEAAFNXFXQA
modifications: not fully specified; N-terminal Ac; C-terminal NH2; PL3 at 1, B5 at 4, S8 at 11, BztA at 13; stapled PL3-B5 and B5-S8 by olefin metathesis
notes: Stapled peptide; also called Ac-PL3-Asp-Leu-B5-Asp-Glu-Ala-Ala-Phe-Asn-S8-Phe-BztA-Gln-Ala-NH2
As to B2, the IC50 in assay [4] turned out to be 0.035 µM; in assay [5], 11.2 µM.

What is called EC50 is the concentration giving half of the maximal effect. For orientation: IC50 means the point on the concentration scale where inhibition reaches its midpoint.

The record behind these values is US20240116985A1 (published 2024).
